Assay results taken from PMC12144180 (Nature Communications, 2025).

T1: RNA polymerase I subunit A135 (S. cerevisiae, UniProt P22138 1-1203)
T1 sequence: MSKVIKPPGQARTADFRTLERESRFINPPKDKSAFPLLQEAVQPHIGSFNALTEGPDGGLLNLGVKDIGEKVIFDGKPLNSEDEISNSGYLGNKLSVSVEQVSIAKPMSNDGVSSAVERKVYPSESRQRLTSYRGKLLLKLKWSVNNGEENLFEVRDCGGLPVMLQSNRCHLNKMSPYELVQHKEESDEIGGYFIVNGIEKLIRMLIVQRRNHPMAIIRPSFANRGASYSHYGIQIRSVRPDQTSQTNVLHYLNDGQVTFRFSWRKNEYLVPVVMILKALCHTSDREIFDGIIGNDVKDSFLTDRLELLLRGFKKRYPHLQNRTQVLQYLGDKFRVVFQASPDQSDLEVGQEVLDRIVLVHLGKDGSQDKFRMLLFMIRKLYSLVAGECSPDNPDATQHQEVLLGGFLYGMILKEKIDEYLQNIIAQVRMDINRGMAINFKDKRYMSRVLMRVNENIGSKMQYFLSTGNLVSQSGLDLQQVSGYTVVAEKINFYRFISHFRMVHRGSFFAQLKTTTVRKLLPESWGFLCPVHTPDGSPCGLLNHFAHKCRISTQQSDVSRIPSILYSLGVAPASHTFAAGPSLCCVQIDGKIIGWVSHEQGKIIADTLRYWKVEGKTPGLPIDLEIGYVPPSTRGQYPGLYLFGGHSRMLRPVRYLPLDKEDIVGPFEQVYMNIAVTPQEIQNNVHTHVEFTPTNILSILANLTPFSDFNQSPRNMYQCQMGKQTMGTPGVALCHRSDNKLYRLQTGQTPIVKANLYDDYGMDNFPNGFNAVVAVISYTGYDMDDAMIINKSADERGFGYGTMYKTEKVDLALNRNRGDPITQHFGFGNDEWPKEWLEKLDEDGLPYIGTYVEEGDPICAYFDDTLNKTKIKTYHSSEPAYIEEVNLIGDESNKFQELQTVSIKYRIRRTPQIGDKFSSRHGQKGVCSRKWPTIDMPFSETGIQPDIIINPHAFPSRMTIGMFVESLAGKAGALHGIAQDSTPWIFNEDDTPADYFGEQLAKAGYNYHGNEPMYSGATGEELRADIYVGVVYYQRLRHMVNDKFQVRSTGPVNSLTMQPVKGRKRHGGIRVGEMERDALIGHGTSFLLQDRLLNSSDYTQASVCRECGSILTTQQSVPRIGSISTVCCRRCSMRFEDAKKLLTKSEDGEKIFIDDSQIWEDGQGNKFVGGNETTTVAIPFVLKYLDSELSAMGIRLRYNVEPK

B1: RNA polymerase I subunit A12 (natural protein)
chain: MSVVGSLIFCLDCGDLLENPNAVLGSNVECSQCKAIYPKSQFSNLKVVTTTADDAFPSSLRAKKSVVKTSLKKNELKDGATIKEKCPQCGNEEMNYHTLQLRSADEGATVFYTCTSCGYKFRTNN
B2: A49/A34.5 heterodimer of RNA polymerase I (complex)
chain 1: MSVKRSVSEIEIESVQDQPSVAVGSFFKGFRAPSDTTFDLYKKKKSEKDEFVLHGENERLEYEGYTDSSSQASNQYVVGLFNPEKKSIQLYKAPVLVSKVVSKSSKNLRGPKIKSKSDTRPSALRNALGEAFGTKKAKKAIADLERNRIDSDKLTDSAIDIVDSVRTASKDLPTRAQLDEITSNDRPTPLANIDATDVEQIYPIESIIPKKELQFIRVSSILKEADKEKKLELFPYQNNSKYVAKKLDSLTQPSQMTKLQLLYYLSLLLGVYENRRVNNKTKLLERLNSPPEILVDGILSRFTVIKPGQFGRSKDRSYFIDPQNEDKILCYILAIIMHLDNFIVEITPLAHELNLKPSKVVSLFRVLGAIVKGATVAQAEAFGIPKSTAASYKIATMKVPFKLPEMTRRGRGPRR
chain 2: MSKLSKDYVSDSDSDDEVISNEFSIPDGFKKCKHLKNFPLNGDNKKKAKQQQVWLIKFPSNVDISKLKSLPVDFESSTTMTIDKHDYKIMDDTDIESSLTQDNLSNMTLLVPSESKESLKIASTAKDNAPLQFDKVFSVSETAKIPAIDYSKVRVPRKDVPKVEGLKLEHFATGYDAEDFHVAEEVKENKKEPKKRSHHDDEEESSEKKKKKKEKREKREKKDKKDKKKKHRD

Target: T1, RNA polymerase I subunit A135
Test: cryo-EM structure

binding result	Binder
binds	B1
binds	B2
